Assay results published in the supplement of paper PMC9170038.

System: MS2 coat protein
Assay: apparent KD of MS2 coat protein; designed switch direction (-1 OFF switch, 1 ON switch): -1; higher = weaker reporter binding
In short: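 Designed RNA switches were transcribed on Illumina chips by stalled E. coli RNA polymerase and titrated with SNAP-549-labelled MS2 coat protein from 0.7 or 1.5 nM, doubling to 3 µM. Step length ran from 0.8–1.5 h at the lowest concentration to 10–20 min at the highest. The apparent KD is the median over clusters for each design, from curve-fitted normalised cluster fluorescence.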

[1] = input ligand: microRNA oligo, concentration not stated

| Sequence | apparent KD of MS2 coat protein [1] | apparent KD of MS2 coat protein (input ligand: FMN 200 uM) | apparent KD of MS2 coat protein (input ligand: none) | apparent KD of MS2 coat protein (Eterna round: R95, input ligand: FMN 200 uM) | apparent KD of MS2 coat protein (Eterna round: R95, input ligand: microRNA oligo, concentration not stated) | apparent KD of MS2 coat protein (Eterna round: R95, input ligand: none) |
| --- | --- | --- | --- | --- | --- | --- |
| UGAGUGCUGCGAGGAUAUACAUGAGGAUCACCCAUGUAAAUGUGUGAGGCUUUGCCUCACACAAUGUAGAAGGCGCAGUACUCU [JL ENG2 1.01] (Eterna round: R96, puzzle: Exclusion NG 2) | 9.17 nM |  |  |  |  |  |
| UGAGUGCUGCGAGGAUAUACAUGAGGAUCACCCAUGUAAUAGUGUGAGGCUUUGCCUCACACAAUGUAGAAGGCGCAGUACUCU [JL ENG2 1.02] (Eterna round: R96, puzzle: Exclusion NG 2) | 8.58 nM | 17.1 nM | 12.5 nM |  |  |  |
| UGAGUGCUGCGAGGAUAUACAUGAGGAUCACCCAUGUAAUCGUGUGAGGCUUUGCCUCACACGAUGUAGAAGGCGCAGUACUCU [JL ENG2 1.09] (Eterna round: R96, puzzle: Exclusion NG 2) | 8.97 nM | 9.84 nM | 11.9 nM |  |  |  |
| UGAGUGCUGCGAGGAUAUACAUGAGGAUCACCCAUGUAUUAGUGUGAGGCUUUGCCUCACACAAUGUAGAAGGCGCAGUACUCU [JL ENG2 1.03] (Eterna round: R96, puzzle: Exclusion NG 2) | 10.3 nM | 5.74 nM | 13.1 nM |  |  |  |
| UGAGUGGUGCGAGGAUAUACAUGAGGAUCACCCAUGUAAACGUGUGAGGCAAAGCCUCACACGAUGUAGAAGGCGCACUACUCU [Mat - Exclusion NG 2 - Mod of JL - D14] (Eterna round: R96, puzzle: Exclusion NG 2) | 12.4 nM | 24.7 nM | 19.5 nM |  |  |  |
| UGAUCAAAUGUCAGGAUAUGCUAUUAGAAAUAAUAGCAGAAGGGACAUGAGGAUCACCCAUGUCUUGUCGAUUU [Magic-01] (puzzle: Brourd's mod of Exclusion 4) |  |  |  | 93.5 nM | 19.2 nM | 20.1 nM |
| UGAUCAGACCGAGGAUAUACAUGUAGGACCCACGUGAGUGGGUCCAGUACAUGAGGAUCACCCAUGUAGAAGGCGGUCUGAUCU [JL ENG2 1.89] (Eterna round: R96, puzzle: Exclusion NG 2) | 70.6 nM | 241 nM | 94.6 nM |  |  |  |
| UGAUCAGACCGAGGAUAUACAUGUAGGACGCACGUGAGUGCGUCCAAUACAUGAGGAUCACCCAUGUAGAAGGCGGUCUGAUCU [JL ENG2 1.94] (Eterna round: R96, puzzle: Exclusion NG 2) | 76.4 nM | 181 nM | 86.7 nM |  |  |  |
| UGAUCAGACCGAGGAUAUAUAUGUAGGACGCACGUGAGUGCGUCCAAUACAUGAGGAUCACCCAUGUAGAAGGCGGUCUGAUCU [JL ENG2 1.97] (Eterna round: R96, puzzle: Exclusion NG 2) | 9.9 nM | 18.5 nM | 14.2 nM |  |  |  |
| UGAUCCAAAGAGGAUAUGUCGGGCCAGGGCCCAACAGAAGGCUUUACAUGAGGAUCACCCAUGUUCGCGACAUG [EX6 A.22] (Eterna round: R97, puzzle: Exclusion 6) |  | 481 nM | 558 nM |  |  |  |
| UGAUCCGGUGUGAGGAUAUUUAACCUCAUAUAGGUAAAGAAGGCACAUGAGGAUCACCCAUGUCGAGGCCCGAU [Eternabot (L2) Solution 74] (Eterna round: R97, puzzle: Brourd's mod of Exclusion 4) |  | 209 nM | 168 nM |  |  |  |
